Laboratory results as given in patent US20110091994A1, “Methods for Screening Compounds for Treating and/or Preventing an Hepatitis C Virus Infection” (priority 2008, published 2011).
Where two headings read alike, the source gives them in different places.

Columns and labels:
[1] = target: T1, HCV ORFs (Gal4-DB fusions) (Hepatitis C virus genotype 1b, UniProt Q9WMX2); assay type: binding, HCV genotype 1b, isolate con1; details: human protein as prey
T1 construct: expressed in transfected cells; host or cells: Saccharomyces cerevisiae MAV203 (IMAP1) / AH109 (IMAP2)

HCV proteins = target: T2, HCV proteins (Hepatitis C virus genotype 1b, UniProt Q9WMX2); assay: Validation by Y2H pairwise matrices; assay type: binding;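 also: yeast two-hybrid pairwise tests of interactions first found in Y2H screens of HCV bait proteins against human cDNA libraries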
T2 construct: expressed in transfected cells

[2] = system: HCV ORFs (Gal4-DB fusions); assay type: binding, HCV genotype 1b, isolate con1; details: human protein listed by gene symbol; the value names the HCV protein it interacts with
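For IMAP Y2H IMAP1 (number of IST) in this document: yeast two-hybrid screens using HCV genotype 1b proteins fused to Gal4-DB as baits against prey cDNA libraries from human spleen and foetal brain, IMAP1 via transformation and IMAP2 via mating.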
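For IMAP Y2H IMAP2 (number of IST) in this document: yeast two-hybrid screens using HCV genotype 1b proteins fused to Gal4-DB as baits against prey cDNA libraries from human spleen and foetal brain, IMAP1 via transformation and IMAP2 via mating.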
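For Interaction with viral protein in this document: yeast two-hybrid screens using HCV genotype 1b proteins fused to Gal4-DB as baits against prey cDNA libraries from human spleen and foetal brain, IMAP1 via transformation and IMAP2 via mating.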

B1: SEPT10 (protein, UniProt Q9P0V9 1-454, looked up)
Septin-10: MASSEVARHLLFQSHMATKTTCMSSQGSDDEQIKRENIRSLTMSGHVGFESLPDQLVNRSIQQGFCFNILCVGETGIGKSTLIDTLFNTNFEDYESSHFCPNVKLKAQTYELQESNVQLKLTIVNTVGFGDQINKEESYQPIVDYIDAQFEAYLQEELKIKRSLFTYHDSRIHVCLYFISPTGHSLKTLDLLTMKNLDSKVNIIPVIAKADTVSKTELQKFKIKLMSELVSNGVQIYQFPTDDDTIAKVNAAMNGQLPFAVVGSMDEVKVGNKMVKARQYPWGVVQVENENHCDFVKLREMLICTNMEDLREQTHTRHYELYRRCKLEEMGFTDVGPENKPVSVQETYEAKRHEFHGERQRKEEEMKQMFVQRVKEKEAILKEAERELQAKFEHLKRLHQEERMKLEEKRRLLEEEIIAFSKKKATSEIFHSQSFLATGSNLRKDKDRKNSNFL
- IMAP Y2H IMAP1 (number of IST) ([1]; HCV protein NS3 as bait): 1
- Y2H matrices (HCV proteins; validation of interaction with HCV protein NS3): +

B2: BCL2A1 (protein, UniProt Q16548 1-175, looked up)
Bcl-2-related protein A1: MTDCEFGYIYRLAQDYLQCVLQIPQPGSGPSKTSRVLQNVAFSVQKEVEKNLKSCLDNVNVVSVDTARTLFNQVMEKEFEDGIINWGRIVTIFAFEGILIKKLLRQQIAPDVDTYKEISYFVAEFIMNNTGEWIRQNGGWENGFVKKFEPKSGWMTFLEVTGKICEMLSLLKQYC
- IMAP Y2H IMAP2 (number of IST) ([1]; HCV protein NS3 as bait): 1
- Interaction with viral protein [2]: NS3

B3: C16orf7 (protein, UniProt Q9Y2B5 1-631, looked up)
VPS9 domain-containing …: MAAAAGDGTVKPLQSAMKLANGAIELDTGNRPREAYTEYLRSIHYISQVLLEEVETTKEAGETVPPDTSKMLKLAQQCLERAQSTAAKLGKTRLKPTMPAAAPIPQPAGRHRRVYSDEGGKLSPFLPPEIFQKLQGAESQSCKKELTPLEEASLQNQKLKAAYEARMARLDPSQAMQKTSLTLSLQRQMMENLVIAKAREETLQRKMEERRLRLQEAANRRFCSQVALTPEEREQRALYAAILEYEQDHDWPKHWKAKLKRNPGDLSLVTSLVSHLLSLPDHPIAQLLRRLQCSVYSALYPAVSRAAAPAPGCCPPTPNPGSRRLRPSQSLHCMLSPPEPSAAPRPQDSPPTPPLQPGPVGSPSPLGDTASGLPDKDSSFEDLEQFLGTSERQGRGRGVQPEPQLQQLKTAVEEIHNAVDRLLSLTLLAFEGLNTAASKDRCLACIEEPFFSPLWPLLLALYRSVHRAREAALSRSMELYRNAPPTAIGIPTKLLPQNPEAKGATGYPYCAAAQELGLLVLESCPQKKLECIVRTLRIICVCAEDYCPTPEATPQAGPPPIAAAAIGADDLLPILSFVVLRSGLPQLVSECAALEEFIHEGYLIGEEGYCLTSLQSALSYVELLPRGGLAK
- IMAP Y2H IMAP2 (number of IST) ([1]; HCV protein NS3 as bait): 1
- Interaction with viral protein [2]: NS3

B4: USP19 (protein, UniProt O94966 1-1318, looked up)
Ubiquitin carboxyl-terminal …: MSGGASATGPRRGPPGLEDTTSKKKQKDRANQESKDGDPRKETGSRYVAQAGLEPLASGDPSASASHAAGITGSRHRTRLFFPSSSGSASTPQEEQTKEGACEDPHDLLATPTPELLLDWRQSAEEVIVKLRVGVGPLQLEDVDAAFTDTDCVVRFAGGQQWGGVFYAEIKSSCAKVQTRKGSLLHLTLPKKVPMLTWPSLLVEADEQLCIPPLNSQTCLLGSEENLAPLAGEKAVPPGNDPVSPAMVRSRNPGKDDCAKEEMAVAADAATLVDEPESMVNLAFVKNDSYEKGPDSVVVHVYVKEICRDTSRVLFREQDFTLIFQTRDGNFLRLHPGCGPHTTFRWQVKLRNLIEPEQCTFCFTASRIDICLRKRQSQRWGGLEAPAARVGGAKVAVPTGPTPLDSTPPGGAPHPLTGQEEARAVEKDKSKARSEDTGLDSVATRTPMEHVTPKPETHLASPKPTCMVPPMPHSPVSGDSVEEEEEEEKKVCLPGFTGLVNLGNTCFMNSVIQSLSNTRELRDFFHDRSFEAEINYNNPLGTGGRLAIGFAVLLRALWKGTHHAFQPSKLKAIVASKASQFTGYAQHDAQEFMAFLLDGLHEDLNRIQNKPYTETVDSDGRPDEVVAEEAWQRHKMRNDSFIVDLFQGQYKSKLVCPVCAKVSITFDPFLYLPVPLPQKQKVLPVFYFAREPHSKPIKFLVSVSKENSTASEVLDSLSQSVHVKPENLRLAEVIKNRFHRVFLPSHSLDTVSPSDTLLCFELLSSELAKERVVVLEVQQRPQVPSVPISKCAACQRKQQSEDEKLKRCTRCYRVGYCNQLCQKTHWPDHKGLCRPENIGYPFLVSVPASRLTYARLAQLLEGYARYSVSVFQPPFQPGRMALESQSPGCTTLLSTGSLEAGDSERDPIQPPELQLVTPMAEGDTGLPRVWAAPDRGPVPSTSGISSEMLASGPIEVGSLPAGERVSRPEAAVPGYQHPSEAMNAHTPQFFIYKIDSSNREQRLEDKGDTPLELGDDCSLALVWRNNERLQEFVLVASKELECAEDPGSAGEAARAGHFTLDQCLNLFTRPEVLAPEEAWYCPQCKQHREASKQLLLWRLPNVLIVQLKRFSFRSFIWRDKINDLVEFPVRNLDLSKFCIGQKEEQLPSYDLYAVINHYGGMIGGHYTACARLPNDRSSQRSDVGWRLFDDSTVTTVDESQVVTRYAYVLFYRRRNSPVERPPRAGHSEHHPDLGPAAEAAASQASRIWQELEAEEEPVPEGSGPLGPWGPQDWVGPLPRGPTTPDEGCLRYFVLGTVAALVALVLNVFYPLVSQSRWR
- IMAP Y2H IMAP1 (number of IST) ([1]; HCV protein NS5A as bait): 3
- Y2H matrices (HCV proteins; interaction with HCV protein NS5A): +

B5: SMEK2 (protein, UniProt Q5MIZ7 1-849, looked up)
Serine/threonine-protein …: MSDTRRRVKVYTLNEDRQWDDRGTGHVSSTYVEELKGMSLLVRAESDGSLLLESKINPNTAYQKQQDTLIVWSEAENYDLALSFQEKAGCDEIWEKICQVQGKDPSVEVTQDLIDESEEERFEEMPETSHLIDLPTCELNKLEEIADLVTSVLSSPIRREKLALALENEGYIKKLLQLFQACENLENTEGLHHLYEIIRGILFLNKATLFEVMFSDECIMDVVGCLEYDPALAQPKRHREFLTKTAKFKEVIPITDSELRQKIHQTYRVQYIQDIILPTPSVFEENFLSTLTSFIFFNKVEIVSMLQEDEKFLSEVFAQLTDEATDDDKRRELVNFFKEFCAFSQTLQPQNRDAFFKTLAKLGILPALEIVMGMDDLQVRSAATDIFSYLVEFSPSMVREFVMQEAQQSDDDILLINVVIEQMICDTDPELGGAVQLMGLLRTLIDPENMLATTNKTEKSEFLNFFYNHCMHVLTAPLLTNTSEDKCEKDFFLKHYRYSWSFICTPSHSHSHSTPSSSISQDNIVGSNKNNTICPDNYQTAQLLALILELLTFCVEHHTYHIKNYIMNKDLLRRVLVLMNSKHTFLALCALRFMRRIIGLKDEFYNRYITKGNLFEPVINALLDNGTRYNLLNSAVIELFEFIRVEDIKSLTAHIVENFYKALESIEYVQTFKGLKTKYEQEKDRQNQKLNSVPSILRSNRFRRDAKALEEDEEMWFNEDEEEEGKAVVAPVEKPKPEDDFPDNYEKFMETKKAKESEDKENLPKRTSPGGFKFTFSHSASAANGTNSKSVVAQIPPATSNGSSSKTTNLPTSVTATKGSLVGLVDYPDDEEEDEEEESSPRKRPRLGS
- IMAP Y2H IMAP1 (number of IST) ([1]; HCV protein E2 as bait): 1
- Y2H matrices (HCV proteins; validation of interaction with HCV protein E2): +

B6: TP53BP2 (protein, UniProt Q13625 1-1128, looked up)
Apoptosis-stimulating of p53 …: MMPMFLTVYLSNNEQHFTEVPVTPETICRDVVDLCKEPGESDCHLAEVWCGSERPVADNERMFDVLQRFGSQRNEVRFFLRHERPPGRDIVSGPRSQDPSLKRNGVKVPGEYRRKENGVNSPRMDLTLAELQEMASRQQQQIEAQQQLLATKEQRLKFLKQQDQRQQQQVAEQEKLKRLKEIAENQEAKLKKVRALKGHVEQKRLSNGKLVEEIEQMNNLFQQKQRELVLAVSKVEELTRQLEMLKNGRIDSHHDNQSAVAELDRLYKELQLRNKLNQEQNAKLQQQRECLNKRNSEVAVMDKRVNELRDRLWKKKAALQQKENLPVSSDGNLPQQAASAPSRVAAVGPYIQSSTMPRMPSRPELLVKPALPDGSLVIQASEGPMKIQTLPNMRSGAASQTKGSKIHPVGPDWSPSNADLFPSQGSASVPQSTGNALDQVDDGEVPLREKEKKVRPFSMFDAVDQSNAPPSFGTLRKNQSSEDILRDAQVANKNVAKVPPPVPTKPKQINLPYFGQTNQPPSDIKPDGSSQQLSTVVPSMGTKPKPAGQQPRVLLSPSIPSVGQDQTLSPGSKQESPPAAAVRPFTPQPSKDTLLPPFRKPQTVAASSIYSMYTQQQAPGKNFQQAVQSALTKTHTRGPHFSSVYGKPVIAAAQNQQQHPENIYSNSQGKPGSPEPETEPVSSVQENHENERIPRPLSPTKLLPFLSNPYRNQSDADLEALRKKLSNAPRPLKKRSSITEPEGPNGPNIQKLLYQRTTIAAMETISVPSYPSKSASVTASSESPVEIQNPYLHVEPEKEVVSLVPESLSPEDVGNASTENSDMPAPSPGLDYEPEGVPDNSPNLQNNPEEPNPEAPHVLDVYLEEYPPYPPPPYPSGEPEGPGEDSVSMRPPEITGQVSLPPGKRTNLRKTGSERIAHGMRVKFNPLALLLDSSLEGEFDLVQRIIYEVDDPSLPNDEGITALHNAVCAGHTEIVKFLVQFGVNVNAADSDGWTPLHCAASCNNVQVCKFLVESGAAVFAMTYSDMQTAADKCEEMEEGYTQCSQFLYGVQEKMGIMNKGVIYALWDYEPQNDDELPMKEGDCMTIIHREDEDEIEWWWARLNDKEGYVPRNLLGLYPRIKPRQRSLA
- IMAP Y2H IMAP2 (number of IST) ([1]; HCV protein NS5A as bait): 2
- Interaction with viral protein [2]: NS5A

B7: CEP68 (protein, UniProt Q76N32 1-757, looked up)
Centrosomal protein of 68 kDa: MALGEEKAEAEASEDTKAQSYGRGSCRERELDIPGPMSGEQPPRLEAEGGLISPVWGAEGIPAPTCWIGTDPGGPSRAHQPQASDANREPVAERSEPALSGLPPATMGSGDLLLSGESQVEKTKLSSSEEFPQTLSLPRTTTICSGHDADTEDDPSLADLPQALDLSQQPHSSGLSCLSQWKSVLSPGSAAQPSSCSISASSTGSSLQGHQERAEPRGGSLAKVSSSLEPVVPQEPSSVVGLGPRPQWSPQPVFSGGDASGLGRRRLSFQAEYWACVLPDSLPPSPDRHSPLWNPNKEYEDLLDYTYPLRPGPQLPKHLDSRVPADPVLQDSGVDLDSFSVSPASTLKSPTNVSPNCPPAEATALPFSGPREPSLKQWPSRVPQKQGGMGLASWSQLASTPRAPGSRDARWERREPALRGAKDRLTIGKHLDMGSPQLRTRDRGWPSPRPEREKRTSQSARRPTCTESRWKSEEEVESDDEYLALPARLTQVSSLVSYLGSISTLVTLPTGDIKGQSPLEVSDSDGPASFPSSSSQSQLPPGAALQGSGDPEGQNPCFLRSFVRAHDSAGEGSLGSSQALGVSSGLLKTRPSLPARLDRWPFSDPDVEGQLPRKGGEQGKESLVQCVKTFCCQLEELICWLYNVADVTDHGTAARSNLTSLKSSLQLYRQFKKDIDEHQSLTESVLQKGEILLQCLLENTPVLEDVLGRIAKQSGELESHADRLYDSILASLDMLAGCTLIPDKKPMAAMEHPCEGV
- IMAP Y2H IMAP1 (number of IST) ([1]; HCV protein NS5B as bait): 1
- Y2H matrices (HCV proteins; interaction with HCV protein NS5B): +

B8: FXYD6 (protein, UniProt Q9H0Q3 19-95, looked up)
FXYD domain-containing ion …: SAAEKEKEMDPFHYDYQTLRIGGLVFAVVLFSVGILLILSRRCKCSFNQKPRAPGDEEAQVENLITANATEPQKAEN
- IMAP Y2H IMAP1 (number of IST) ([1]; HCV protein p7 as bait): 1
- Y2H matrices (HCV proteins; interaction with HCV protein p7): +
